Assay results reported in publication PMC6980676 (Molecular cell, 2019).

How the values were obtained:
SEC = target: the molecule itself; test: SEC
native gel or EMSA = target: the molecule itself; test: native gel or EMSA
Vts1-SNAP (full length) [1] = target: T1, Vts1-SNAP (full length) (UniProt Q08831 1-523); test: fluorescence microscopy co-localization
T1 sequence: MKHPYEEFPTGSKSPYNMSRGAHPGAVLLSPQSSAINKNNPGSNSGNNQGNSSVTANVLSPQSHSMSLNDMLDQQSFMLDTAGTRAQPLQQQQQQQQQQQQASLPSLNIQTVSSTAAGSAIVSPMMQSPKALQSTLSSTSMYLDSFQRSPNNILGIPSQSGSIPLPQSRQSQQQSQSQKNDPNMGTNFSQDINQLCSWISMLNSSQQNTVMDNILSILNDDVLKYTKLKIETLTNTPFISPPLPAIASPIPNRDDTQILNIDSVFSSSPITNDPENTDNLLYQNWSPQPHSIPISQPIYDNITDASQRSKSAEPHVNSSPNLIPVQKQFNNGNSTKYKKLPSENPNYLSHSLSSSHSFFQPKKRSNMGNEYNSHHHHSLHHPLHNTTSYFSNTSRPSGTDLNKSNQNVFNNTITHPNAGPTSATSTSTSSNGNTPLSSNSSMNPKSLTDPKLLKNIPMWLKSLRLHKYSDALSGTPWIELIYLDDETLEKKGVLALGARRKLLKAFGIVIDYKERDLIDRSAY

Vts1-SNAP (full length) [2] = target: T1, Vts1-SNAP (full length); test: fluorescence microscopy co-localization; remark: listed apart in the source

B1: full-length Vts1 with a C-terminal SNAP tag (natural protein, S. cerevisiae, UniProt Q08831 1-523, looked up)
chain: T1 sequence
In the case of B1, the “stoichiometry N” value (SEC) is reported as 6.

B2: SNAP^549 labeled full-length Vts1 (natural protein, S. cerevisiae, UniProt Q08831 1-523, looked up)
chain: T1 sequence
modifications: SNAP-Surface 549 dye on the SNAP tag
B2: binds (native gel or EMSA).

UAAUAAUCAGCUGGCCUGAUUAGUC (structured_RNA) [SRE+ RNA]: binds (Vts1-SNAP (full length) [1]).

With UAAUAAUCAGGUCGCCUGAUUAGUC (structured_RNA) [SRE- RNA (permuted SRE)] the binding signal (Vts1-SNAP (full length) [2]) was > 5 fold lower co-localized signal than SRE+.
